The values that follow come from US20250136687A1 (SHANDONG SIMCERE BIOPHARMACEUTICAL, published 2025).

Experiment [1] concerns the target T1, human CD3ε/δ-His (human, UniProt P07766 23-126; P04234 22-105).
T1 construct: Bought recombinant heterodimer with His tag; also called human CD3ε/δ protein
Description: ELISA, coated antigen. On the procedure: (§1) To detect the binding activity of the humanized antibodies to CD3 protein, CD3 protein was diluted with PBS to the final concentration of […], then added to a 96-well ELISA plate at 50 μL/well, and the plate was sealed with a plastic film, and incubated overnight at 4° C. On the next day, the plate was washed 2 times with PBS, and a blocking solution [PBS+2% (v/v) BSA] was added for blocking at room temperature for 2 h. The blocking solution was poured off, and the antibody (initial concentration of 100 nM, and gradient dilution at 1:10) or a negative control antibody was added at 50 µl/well. After incubation at 37° C. for 2 h, the plate was washed 3 times with PBS. […] TMB substrate was added at 50 μl/well, and incubated at room temperature for 10 min, and then a stop solution (1.0 N HCl) was added at 50 μl/well. The OD450 nm values were read by an ELISA microplate reader (Multimode Plate Reader, EnSight, purchased from Perkin Elmer).

Experiment [2] concerns the target T2, recombinant human CD3ε-ECD His protein (human, UniProt P07766 23-126).
T2 construct: extracellular domain; also called human CD3ε-His; CD3ε antigen protein; not shown: His tag
In words: ELISA, coated antigen. How it is done: as §1

Experiment [3] deals with T3, human CD3 on the cell surface (Jurkat cells, expanded human T cells, Jurkat-Lucia NFAT cells, human PBMC) (human, UniProt P07766 23-207; P04234 22-171; P09693 23-182).
T3 construct: whole, on cells; Endogenous CD3 within the TCR-CD3 complex on cells (also zeta chains and TCR); the cell type is named under assay
T3 sequence (P07766 23-207, chain 1 of 3): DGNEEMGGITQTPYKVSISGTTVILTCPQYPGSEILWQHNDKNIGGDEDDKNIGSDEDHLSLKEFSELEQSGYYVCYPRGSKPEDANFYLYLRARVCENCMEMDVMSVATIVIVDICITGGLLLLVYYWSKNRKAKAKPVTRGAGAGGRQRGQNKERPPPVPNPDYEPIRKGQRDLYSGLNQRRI
T3 sequence (P04234 22-171, chain 2 of 3): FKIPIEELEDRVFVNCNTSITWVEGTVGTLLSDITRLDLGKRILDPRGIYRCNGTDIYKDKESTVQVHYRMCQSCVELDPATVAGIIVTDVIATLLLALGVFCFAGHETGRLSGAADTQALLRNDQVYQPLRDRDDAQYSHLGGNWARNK
T3 sequence (P09693 23-182, chain 3 of 3): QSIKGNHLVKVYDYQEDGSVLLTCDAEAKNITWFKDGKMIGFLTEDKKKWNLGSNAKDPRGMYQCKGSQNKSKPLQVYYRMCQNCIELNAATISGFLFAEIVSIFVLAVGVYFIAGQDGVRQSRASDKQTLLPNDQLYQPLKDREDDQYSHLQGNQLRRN
In words: FACS, Jurkat cells. How it is done:
(§2) The binding of the chimeric antibodies to CD3 on the cell surface was analyzed by detecting the binding of the antibodies to Jurkat cells and human T cells. Suspension cells Jurkat cells were scale-up cultured in T-75 cell culture flasks to the logarithmic growth phase, the supernatant of the medium was discarded by centrifugation, and the cell pellet was washed 2 times with PBS for later use. The expanded human T cells were washed 2 times with PBS for later use. After counting the cells in the previous step, the cell pellet was resuspended with [PBS+2% (w/w) BSA] blocking solution to 4×10⁶ cells/ml, and added to a 96-well FACS reaction plate at 50 μl/well, and then the chimeric antibody to be tested was added at 50 μl/well, and incubated at 4° C. for 1 h. The cells were centrifuged and washed 3 times with a PBS buffer. […] The cells were centrifuged and washed 5 times with PBS, and FACS (FACS Canto™, purchased from BD Company) was used for detection and result analysis. Data analysis was performed by software (CellQuest) to obtain the mean fluorescence […] (MFI) of the cells. And then software (GraphPad Prism8) was used for analysis, data fitting, and EC50 value calculation. The same method was used to simultaneously detect the binding of the chimeric antibodies to endogenous CD3 negative cells MOLT4 cells.

Experiment [4] deals with T3, human CD3 on the cell surface (Jurkat …). In words: FACS, Jurkat cells. On the procedure:
as §2
The source holds these as a separate data set.

Experiment [5] concerns the target T4, monkey CD3ε protein (monkey, UniProt Q95LI5 22-117, limits assumed).
T4 sequence (looked up): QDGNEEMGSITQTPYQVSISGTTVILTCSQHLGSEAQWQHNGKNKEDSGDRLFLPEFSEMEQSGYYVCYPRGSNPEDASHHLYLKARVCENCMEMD
In words: ELISA, coated antigen.

The target in experiment [6] is T5, monkey CD3ε/δ-His (monkey, UniProt Q95LI5 22-117; Q95LI8 22-105).
T5 construct: Bought recombinant heterodimer with His tag
In words: ELISA, coated antigen.

In experiment [7] the target is T1, human CD3ε/δ-His. Description: SPR, antibody captured on Protein A chip.
In experiment [8] the target is T3, human CD3 on the cell surface (Jurkat …). In words: FACS, expanded human T cells. How it is done:
as §2

For experiment [9] the target is unchanged. Description: FACS, expanded human T cells. How it is done:
as §2
This is another data set of the same source.

T1 sequence (P07766 23-126, stated change not applied, form in doubt, chain 1 of 2): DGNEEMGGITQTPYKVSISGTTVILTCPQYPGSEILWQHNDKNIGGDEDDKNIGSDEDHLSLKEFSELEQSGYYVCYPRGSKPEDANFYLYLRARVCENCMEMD
T1 sequence (P04234 22-105, stated change not applied, form in doubt, chain 2 of 2): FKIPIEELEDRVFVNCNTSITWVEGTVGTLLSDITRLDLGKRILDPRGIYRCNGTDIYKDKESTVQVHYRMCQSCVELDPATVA
T2 sequence (P07766 23-126): as the sequence (P07766 23-126, stated change not applied, form in doubt, chain 1 of 2) above

B1: 40G5c-hIgG1 (antibody, V domains shown)
VH: EVQLVQSGAEVKKPGASVKVSCKASGYTFTNYYIHWVRQAPGQGLEWIGWIYPGDGNTKYNEKFKGRATLTADTSTSTAYLELSSLRSEDTAVYYCARDSYSNYYFDYWGQGTLVTVSS
VL: DIVMTQSPDSLAVSLGERATINCKSSQSLLNSRTRKNYLAWYQQKPGQPPKLLIYWASTRESGVPDRFSGSGSGTDFTLTISSLQAEDVAVYYCTQSFILRTFGQGTKVEIKR
With B1, the EC50 in experiment [1] stood at 0.36 nM; in experiment [2] it was 0.118 nM; in experiment [3] it was 0.16 nM; in experiment [4], 0.1 nM; in experiment [5] it was 0.128 nM; in experiment [6] it was 0.0754 nM. The 50% effective concentration (EC50) in experiment [8] amounted to 0.7 nM; in experiment [9] it was 0.66 nM. The max-OD450 in [1] is 2.83 OD450; in experiment [2], 3.09 OD450; in experiment [5], 2.96 OD450; in experiment [6], 2.52 OD450. Further, the MFI_Max is 6340 MFI in experiment [3], 29500 MFI in experiment [4], 12300 MFI in [8] and 15400 MFI in [9]. The same molecule had a dissociation constant Kd in experiment [7] of 21.3 nM. In [7], this molecule came in with a koff of 0.0327 s⁻¹. In experiment [7], the kon came out at 1.53e+06 M⁻¹ s⁻¹.

B2: F2B-hIgG1 (antibody, V domains shown)
VH: EVQLVESGGGLVQPGRSLRLSCAASGFTFDDYAMHWVRQAPGKGLEWVSGISWNSGSIGYADSVKGRFTISRDNAKNSLYLQMNSLRAEDTALYYCAKDSRGYGDYRLGGAYWGQGTLVTVSS
VL: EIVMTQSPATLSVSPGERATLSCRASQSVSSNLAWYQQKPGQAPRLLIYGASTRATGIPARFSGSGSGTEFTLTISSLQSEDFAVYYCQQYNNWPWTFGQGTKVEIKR
notes: also called F2Bs
As for B2, the max-OD450 worked out at 0.16 OD450 in experiment [1], 0.1 OD450 in experiment [2], 0.06 OD450 in [5] and 0.05 OD450 in [6]. The binding result in experiment [2] and in [5] was “no binding (tested: 100 nM (initial concentration))” throughout. The 50% effective concentration (EC50) in [3] turned out to be 8.77 nM; in experiment [4], 20.4 nM; in experiment [8] it was 10.4 nM; in experiment [9], 15.8 nM. Moreover, the MFI_Max turned out to be 841 MFI in [3], 4860 MFI in [4], 1980 MFI in experiment [8] and 2360 MFI in experiment [9].
